# Measured values as given in patent US20250270343A1 (Alector, published 2025).
# Changes are numbered by the printed parent chain.
# T1: full-length untagged human GPNMB expressed on cells (human, UniProt Q14956 23-572)
# T1 sequence: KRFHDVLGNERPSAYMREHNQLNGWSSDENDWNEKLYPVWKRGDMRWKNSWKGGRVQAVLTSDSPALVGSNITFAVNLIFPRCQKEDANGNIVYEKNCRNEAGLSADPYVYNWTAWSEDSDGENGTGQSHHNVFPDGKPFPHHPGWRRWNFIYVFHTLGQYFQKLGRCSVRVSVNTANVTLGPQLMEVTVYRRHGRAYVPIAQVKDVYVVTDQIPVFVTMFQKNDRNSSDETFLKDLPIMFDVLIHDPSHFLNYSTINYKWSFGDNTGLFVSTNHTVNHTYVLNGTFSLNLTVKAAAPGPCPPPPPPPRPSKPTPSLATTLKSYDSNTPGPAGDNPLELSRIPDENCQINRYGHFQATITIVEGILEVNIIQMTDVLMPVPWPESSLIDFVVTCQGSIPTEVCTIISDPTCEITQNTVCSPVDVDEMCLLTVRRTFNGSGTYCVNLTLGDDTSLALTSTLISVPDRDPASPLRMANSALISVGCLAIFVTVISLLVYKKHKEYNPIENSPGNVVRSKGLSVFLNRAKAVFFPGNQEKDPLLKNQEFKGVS
# T2: mouse GPNMB endogenously expressed on B16F10 cells (mouse, UniProt Q99P91 23-574)
# T2 construct: whole, on cells; also called moGPNMB
# T2 sequence (looked up): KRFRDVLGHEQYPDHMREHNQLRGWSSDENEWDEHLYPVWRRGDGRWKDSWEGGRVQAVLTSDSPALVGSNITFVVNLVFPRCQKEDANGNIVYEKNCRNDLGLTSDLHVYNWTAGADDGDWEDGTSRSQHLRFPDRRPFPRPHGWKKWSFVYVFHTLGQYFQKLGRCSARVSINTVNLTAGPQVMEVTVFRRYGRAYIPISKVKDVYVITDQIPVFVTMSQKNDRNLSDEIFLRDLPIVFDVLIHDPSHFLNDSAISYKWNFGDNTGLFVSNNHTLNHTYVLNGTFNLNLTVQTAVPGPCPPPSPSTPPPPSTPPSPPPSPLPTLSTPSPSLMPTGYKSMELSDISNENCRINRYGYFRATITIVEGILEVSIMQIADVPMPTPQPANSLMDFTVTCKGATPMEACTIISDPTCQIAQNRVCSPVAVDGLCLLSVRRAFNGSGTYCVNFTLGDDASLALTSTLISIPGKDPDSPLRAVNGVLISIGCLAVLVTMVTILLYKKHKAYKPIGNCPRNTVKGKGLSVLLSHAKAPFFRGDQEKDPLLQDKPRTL
# B1: anti-GPNMB antibody GPN-34 (antibody, human IgG1, V domains shown)
# VH: EVKLVESGGGLVQPGRSLKLSCAASGFNFYDYWMGWVRQAPGKGLEWIGEINKDSRTINYTPFLKDRFTISRDNAQNTLYLQMSKLGSEDTAIYYCAREGRVPFDYWGQGVMVTVSS
# VL: DIQMTQSPSSMSVSLGDTVTIPCRASQDVGSYVNWFQQKPGKSPRHMIYRATNLADGVPSRFSGSRSGADYSLTISSLESEDVADYHCQQYAEYPLTFGSGTKLEIK
# notes: chimeric
# B2: anti-GPNMB antibody GPN-08 (antibody, human IgG1, V domains shown)
# VH: QVQLQQPGAELVKPGASVKLSCRASGYTFTSYWLHWVKQRPGQGLEWIGEINPSDGRTNYIEKVKTKATLTVDKSSSTAYMQLSSLTSEDSAVYYCARSGGNYAWFAYWGQGTLVTVSA
# VL: DIVMTQSHKFMSTSVGDRVSITCKASQDVSPSVAWYQQRPGQSPKLLIYSASYRYTGVPDRFTGSGSGTDFTFTISSVQAEDLAVYYCQQHYSIPLTFGAGTKLELK
# notes: chimeric
# B3: anti-GPNMB antibody GPN-03 (antibody, human IgG1, V domains shown)
# VH: QVQLQQSGPELVKPGASVKLSCKASGYTFTNYYMYWVKQRPGQGLEWIGEINPRNGGTNFNEKFKSKATLTVDKSSSTAYMQLSSLTFEDSAVYYCTTGLAYWGQGTLVTVSA
# VL: DVVMTQTPLSLPVSLGDQASISCRSSQSLVHSDGNTYLHWYLQKPGQSPKLLIYKVSTRFSGVPDRFSGSGSGTDFTLKISRVEAEDLGVYFCSQSTHVPWTFGGGTKLEIK
# notes: chimeric
# B4: anti-GPNMB antibody GPN-06 (antibody, human IgG1, V domains shown)
# VH: B3 VH with P9A, P53T, F88S, L100F
# VL: DIQMTQSPASLSASVGETVTITCRASENIYSYLVWYQQNQGKSPQLLVYNAKTLAEGVPSRFSGSGSGTQFSLKINSLQPEDFGTYYCQHHYGTPFTFGSGTKLEIK
# notes: chimeric
# B5: anti-GPNMB antibody GPN-37 (antibody, human IgG1, V domains shown)
# VH: EVQLVESGGGLVQPGRSLKLSCAASGFTFSSKSGMAWVRQAPTKGLEWVASISNGGGDTYYRDSVKGRFTISRDNAKNTQYLQMDSLRPEDTATYYCARHRDYGYDAYFDYWGQGVMVTVSS
# VL: DIQMTQSPASLSASLGETVTIECLASEDIYSSLAWYQQKPGKSPQLLIYDASSLQDGVPSRFSGSESGTQYSLEINSLQSEDAATYFCQQHHDYPYTFGAGTKLELK
# notes: chimeric
# Target: T1, full-length untagged human GPNMB …
# Test: cell-based or functional assay
Binder,CD40 (FoB),CD80 (FoB),GCase (FoB),PDL1 (FoB)
B1,1.52 FoB,1.36 FoB,1.76 FoB,1.56 FoB
B2,1.35 FoB,1.29 FoB,1.18 FoB,1.59 FoB
B3,1.45 FoB,1.4 FoB,1.47 FoB,1.32 FoB
B4,1.44 FoB,1.38 FoB,1.58 FoB,1.61 FoB
B5,–,–,1.01 FoB,–

# Target: T1, full-length untagged human GPNMB …
# Test: FACS, FS293-huGPNMB+ cells
# Protocol: (§1) Recombinant anti-GPNMB antibodies of the present disclosure were examined for their ability to bind human and/or mouse GPNMB expressed on Freestyle293-huGPNMB+ or B16F10 cells, respectively. B16F10 cells are a murine melanoma cell line from a C57BL/6J mouse that endogenously express high levels of mouse GPNMB. The antibodies were also tested for their ability to bind to a human macrophage cell line (U937 cells) engineered to express human GPNMB. Cells were harvested, plated at 100,000 cells/well in a 96-well round bottom plate, and incubated in 100 μl FACS buffer (PBS containing 2% FBS, 2 mM EDTA) containing anti-GPNMB monoclonal antibodies of the present disclosure for 30 minutes on ice. Cells were then washed and incubated in 100 ul FACS buffer containing 1 μg/ml APC-conjugated anti-human IgG secondary antibody for 30 minutes in ice. Cells were washed twice in cold FACS buffer and acquired on a BD FACS Canto. Data analysis and calculation of MFI values was performed with FlowJo (TreeStar) software version 10.0.7.
# Importantly, several anti-GPNMB antibodies of the present disclosure also bound to the human macrophage cell line U937 cells engineered to express human GPNMB (U937/huGPNMB+) (FIG. 2C). In FIG. 2C, the first data point in each pair corresponds to U937/huGPNMB+ cells, and the second data point in each pair corresponds to U937/huGPNMB− cells. No anti-GPNMB antibodies bound to U937 cells deficient in human GPNMB expression (U937/huGPNMB−).
row,Binder,MFI fold over background
1,B1,125 fold
2,B2,74.4 fold
3,B3,89.2 fold
4,B4,66.4 fold
5,B5,105 fold

# Target: T1, full-length untagged human GPNMB …
# Test: FACS titration, FS293-huGPNMB+ cells
# Protocol: Cell-based binding measurements were also performed to measure the apparent affinities of anti-GPNMB antibodies of the present disclosure to cell-surface expressed GPNMB. Serial dilutions of the monoclonal anti-GPNMB antibodies were added to 100,000 Freestyle293-huGPNMB+ or B16F10 cells and allowed to achieve binding equilibrium at 4° C. After addition of fluorescently labeled secondary antibody and brief washing steps, MFI values as a function of titrated antibody concentration was recorded via FACS analysis. Curves were fit using nonlinear regression analysis with Graphpad Prism 6 software.
row,Binder,EC50
1,B1,0.41 nM
2,B2,0.87 nM
3,B3,3.38 nM
4,B4,1.61 nM
5,B5,0.75 nM

# Target: T2, mouse GPNMB endogenously expressed on …
# Test: FACS on B16F10 mouse melanoma cells (endogenous mouse GPNMB); single antibody concentration (not given); APC anti-human IgG secondary; MFI as fold over background
# Protocol: as §1, with “10.0.7. […]” for “10.0.7.”
row,Binder,binding result
1,B1,no binding
2,B2,no binding
3,B3,no binding
4,B4,no binding
5,B5,no binding
